# Measurements published in PMC7094245.
# T1: IBV N protein amino-terminal region (region 1, NI) (Infectious bronchitis virus (strain …, UniProt P69598 1-133))
# T1 sequence: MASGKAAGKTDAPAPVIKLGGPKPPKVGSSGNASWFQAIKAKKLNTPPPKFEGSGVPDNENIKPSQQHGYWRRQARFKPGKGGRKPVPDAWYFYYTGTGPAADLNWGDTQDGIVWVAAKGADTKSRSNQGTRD
# B1: IBV leader RNA (contains TRS) (ssRNA)
# RNA: ACUUAAGAUAGAUAUUAAUAUAUAUCUAUUACACUAGCCUUGCGCUAGAUUUUUAACUGAACAAUACAGACCUAAAAAGUCUGUUUGAUG
# Molecular target: T1, IBV N protein amino-terminal region …
# Assay: SPR
binder,measurement,value
B1,Kd,1430 nM
